Reference: patent publication US20250026805A1 (DUCENTIS BIOTHERAPEUTICS, published 2025)

Columns and labels:
[1] = biological target: T1, Recombinant Human CD200R, His tagged (human, UniProt Q8TD46 27-266, limits assumed); test: SPR (Biacore T200), CD200-Fc captured on anti-human Fc, His-tagged CD200R flowed over it, 25 C, 1:1 Langmuir model
T1 construct: Bought reagent; Flowed in solution as the analyte in the SPR; also called human CD200 receptor; CD200 receptor; not shown: His tag
T1 sequence (looked up): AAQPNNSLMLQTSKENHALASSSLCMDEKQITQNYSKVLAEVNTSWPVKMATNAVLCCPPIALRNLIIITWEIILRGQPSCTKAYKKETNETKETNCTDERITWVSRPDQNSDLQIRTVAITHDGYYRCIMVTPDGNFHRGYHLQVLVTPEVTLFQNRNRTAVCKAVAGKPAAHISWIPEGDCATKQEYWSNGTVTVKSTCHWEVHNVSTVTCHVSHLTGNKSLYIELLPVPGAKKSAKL
Description: (§1) Anti-human Fc was covalently immobilized on a BIAcore CM5 sensor chip by amine coupling using a GE Healthcare kit following the manufacturer's instructions. Maximum immobilization target was set between 10000-15000 RU. Flow cell 1 was used as a reference, with no immobilized ligand, to permit deduction of non-specific binding to the chip surface. The Fc-ligands were diluted to 0.5 μg/mL in BIAcore running buffer (HBS-EP+: 10 mM HEPES buffered saline containing 2 mM EDTA and 0.05% surfactant P-20). In the final immobilization step, wild-type CD200-Fc, mutant CD200-Fc and un-related control protein (Herceptin/Trastuzumab) were passed over the chip (using flow cells 2, 3 and 4 respectively), for 120 seconds, at a concentration giving rise to a minimum of 250 response units (RU), followed by stabilization of the surface for 120 seconds in running buffer. The CD200-Fc capture procedure was repeated for every CD200R concentration.
(§2) Following capture of the Fc-tagged proteins, CD200R (at different concentrations) was flowed over the captured CD200-Fc and control proteins for 120 seconds (to observe association), followed by 120 seconds of running buffer (to observe dissociation). The chip surface was then regenerated using 10 mM Glycine-HCl (pH 2) for 30 seconds (30 μl/min flow rate) followed by stabilization of the surface for 60 seconds with BIAcore running buffer before the next cycle. All CD200R concentrations were run in duplicate at the following concentrations: 1 μM, 500 nM, 250 nM, 125 nM, 62.5 nM, 31.25 nM, 15.6 nM and 0 nM.
(§3) The results were represented in sensorgrams plotted as response or resonance units (Rus) versus time. The experimental sensorgrams were analyzed in BIAevaluation software version 1.0 (GE Healthcare). […] Rate equations using standard parameters (e.g. ligand concentration, time) were used for iterative curve fitting. Closeness of fit was determined by algorithms provided by the manufacturer in the BIAevaluation software version 1.0.

[2] = biological target: T1, Recombinant Human CD200R, His tagged; test: SPR (BIAcore T200, 25 C): CD200-Fc captured through anti-human Fc on a CM5 chip, His-tagged human CD200R flowed over it. Sensorgrams fitted with the 2 site (two state) binding model. Table 4 of the text gives 3.0 nM for this fit.
Description: as §1, with “concentration. […]” for “concentration.”
(§4) The results were represented in sensorgrams plotted as response or resonance units (Rus) versus time. The experimental sensorgrams were analyzed in BIAevaluation software version 1.0 (GE Healthcare). […] Closeness of fit was determined by algorithms provided by the manufacturer in the BIAevaluation software version 1.0.

[3] = biological target: T1, Recombinant Human CD200R, His tagged; test: SPR (Biacore T200), CD200-Fc captured on anti-human Fc, His-tagged CD200R flowed over it, 25 C, two state binding model
Description: as §1, with “concentration. […]” for “concentration.”
as §4

[4] = biological target: T1, Recombinant Human CD200R, His tagged; test: SPR (Biacore T200), CD200-Fc captured on anti-human Fc, His-tagged CD200R flowed over it, 25 C, 1:1 binding model
Description: as §1, §2, §3

Molecule	Kd [1] [nM]	koff [1] [s⁻¹]	kon [1] [M⁻¹ s⁻¹]	t½ [1] [min]	Kd [2] [nM]	Kd [3] [nM]	Kd [4] [nM]	koff [4] [s⁻¹]	kon [4] [M⁻¹ s⁻¹]	t½ [4] [min]
DS-155 wild-type CD200-Fc fusion protein (IgG4 S228P Fc)	50	0.0251	543000	0.467	–	–	–	–	–	–
DS-150 mutant CD200-Fc fusion protein (K130F, I131F, IgG2 Fc) (Fc fusion, Purified as the dimeric form) QVQVVTQDEREQLYTPASLKCSLQNAQEALIVTWQKKKAVSPENMVTFSENHGVVIQPAYKDKINITQLGLQNSTITFWNITLEDEGCYMCLFNTFGFGFFSGTACLTVYVQPIVSLHYKFSEDHLNITCSATARPAPMVFWKVPRSGIENSTVTLSHPNGTTSVTSILHIKDPKNQVGKEVICQVLHLGTVTDFKQTVNKGERKCCVECPPCPAPPVAGPSVFLFPPKPKDTLMISRTPEVTCVVVDVSHEDPEVQFNWYVDGVEVHNAKTKPREEQFNSTFRVVSVLTVVHQDWLNGKEYKCKVSNKGLPAPIEKTISKTKGQPREPQVYTLPPSREEMTKNQVSLTCLVKGFYPSDISVEWESNGQPENNYKTTPPMLDSDGSFFLYSKLTVDKSRWQQGNVFSCSVMHEALHNHYTQKSLSLSPGK	2.6	0.000226	87500	51.2	–	–	–	–	–	–
DS-161 mutant CD200-Fc fusion protein (K130F, IgG2 Fc) (Fc fusion, Purified as the dimeric form) QVQVVTQDEREQLYTPASLKCSLQNAQEALIVTWQKKKAVSPENMVTFSENHGVVIQPAYKDKINITQLGLQNSTITFWNITLEDEGCYMCLFNTFGFGFISGTACLTVYVQPIVSLHYKFSEDHLNITCSATARPAPMVFWKVPRSGIENSTVTLSHPNGTTSVTSILHIKDPKNQVGKEVICQVLHLGTVTDFKQTVNKGERKCCVECPPCPAPPVAGPSVFLFPPKPKDTLMISRTPEVTCVVVDVSHEDPEVQFNWYVDGVEVHNAKTKPREEQFNSTFRVVSVLTVVHQDWLNGKEYKCKVSNKGLPAPIEKTISKTKGQPREPQVYTLPPSREEMTKNQVSLTCLVKGFYPSDISVEWESNGQPENNYKTTPPMLDSDGSFFLYSKLTVDKSRWQQGNVFSCSVMHEALHNHYTQKSLSLSPGK	0.7	0.000593	838000	19.5	–	–	–	–	–	–
DS-162 mutant CD200-Fc fusion protein (I131F, IgG2 Fc) (Fc fusion, Purified as the dimeric form) QVQVVTQDEREQLYTPASLKCSLQNAQEALIVTWQKKKAVSPENMVTFSENHGVVIQPAYKDKINITQLGLQNSTITFWNITLEDEGCYMCLFNTFGFGKFSGTACLTVYVQPIVSLHYKFSEDHLNITCSATARPAPMVFWKVPRSGIENSTVTLSHPNGTTSVTSILHIKDPKNQVGKEVICQVLHLGTVTDFKQTVNKGERKCCVECPPCPAPPVAGPSVFLFPPKPKDTLMISRTPEVTCVVVDVSHEDPEVQFNWYVDGVEVHNAKTKPREEQFNSTFRVVSVLTVVHQDWLNGKEYKCKVSNKGLPAPIEKTISKTKGQPREPQVYTLPPSREEMTKNQVSLTCLVKGFYPSDISVEWESNGQPENNYKTTPPMLDSDGSFFLYSKLTVDKSRWQQGNVFSCSVMHEALHNHYTQKSLSLSPGK	–	–	–	–	3.1	3	3	0.00474	1.9e+06	2.43
DS-149 mutant CD200-Fc fusion protein (K130Y, I131F, IgG2 Fc) (Fc fusion, Purified as the dimeric form) QVQVVTQDEREQLYTPASLKCSLQNAQEALIVTWQKKKAVSPENMVTFSENHGVVIQPAYKDKINITQLGLQNSTITFWNITLEDEGCYMCLFNTFGFGYFSGTACLTVYVQPIVSLHYKFSEDHLNITCSATARPAPMVFWKVPRSGIENSTVTLSHPNGTTSVTSILHIKDPKNQVGKEVICQVLHLGTVTDFKQTVNKGERKCCVECPPCPAPPVAGPSVFLFPPKPKDTLMISRTPEVTCVVVDVSHEDPEVQFNWYVDGVEVHNAKTKPREEQFNSTFRVVSVLTVVHQDWLNGKEYKCKVSNKGLPAPIEKTISKTKGQPREPQVYTLPPSREEMTKNQVSLTCLVKGFYPSDISVEWESNGQPENNYKTTPPMLDSDGSFFLYSKLTVDKSRWQQGNVFSCSVMHEALHNHYTQKSLSLSPGK	1.9	0.000229	132000	50.5	–	–	–	–	–	–
DS-151 mutant CD200-Fc fusion protein (K130F, I131Y, IgG2 Fc) (Fc fusion, Purified as the dimeric form) QVQVVTQDEREQLYTPASLKCSLQNAQEALIVTWQKKKAVSPENMVTFSENHGVVIQPAYKDKINITQLGLQNSTITFWNITLEDEGCYMCLFNTFGFGFYSGTACLTVYVQPIVSLHYKFSEDHLNITCSATARPAPMVFWKVPRSGIENSTVTLSHPNGTTSVTSILHIKDPKNQVGKEVICQVLHLGTVTDFKQTVNKGERKCCVECPPCPAPPVAGPSVFLFPPKPKDTLMISRTPEVTCVVVDVSHEDPEVQFNWYVDGVEVHNAKTKPREEQFNSTFRVVSVLTVVHQDWLNGKEYKCKVSNKGLPAPIEKTISKTKGQPREPQVYTLPPSREEMTKNQVSLTCLVKGFYPSDISVEWESNGQPENNYKTTPPMLDSDGSFFLYSKLTVDKSRWQQGNVFSCSVMHEALHNHYTQKSLSLSPGK	1.4	0.000181	128000	63.8	–	–	–	–	–	–
